Patent publication US20240102052A1 (VNV NEWCO, published 2024)
Where a chain is given by its changes, count along the chain named. In names and notes the source's numbering stands.

B1: PNMA2 C136S mutant (other)
chain: MALALLEDWCRIMSVDEQKSLMVTGIPADFEEAEIQEVLQETLKSLGRYRLLGKIFRKQENANAVLLELLEDTDVSAIPSEVQGKGGVWKVIFKTPNQDTEFLERLNLFLEKEGQTVSGMFRALGQEGVSPATVPSISPELLAHLLGQAMAHAPQPLLPMRYRKLRVFSGSAVPAPEEESFEVWLEQATEIVKEWPVTEAEKKRWLAESLRGPALDLMHIVQADNPSISVEECLEAFKQVFGSLESRRTAQVRYLKTYQEEGEKVSAYVLRLETLLRRAVEKRAIPRRIADQVRLEQVMAGATLNQMLWCRLRELKDQGPPPSFLELMKVIREEEEEEASFENESIEEPEERDGYGRWNHEGDD
B2: PNMA2 C10S mutant (other)
chain: B1 chain with C10S, S136C
B3: PNMA2 C310S mutant (other)
chain: B1 chain with S136C, C310S
B4: wild type PNMA2 (other)
chain: B1 chain with S136C
notes: Self-associating capsid subunit
B5: PNMA2 C233S mutant (other)
chain: B1 chain with S136C, C233S

Biological target: the molecule itself
Assay: SDS-PAGE and western blot, self-association

Binding result, binds:
B1
B2
B3
B4
B5
